Biological target: Human coagulation factor X (human)
Experiment: SPR; human FX amine-coupled to a CMD500m chip; vector particles 1.25x10^8 to 1x10^9 physical particles per millilitre passed for 3 min at 25 μl/min; 10 mM HEPES pH 7.4, 150 mM NaCl, 5 mM CaCl2, 0.005% Tween 20; reference flow cell subtracted

“AdGFPhCKS17, ΔE1/E3 Ad5 vector particles with CKS17 peptide in place of hexon HVR5 (from UniProt P04133 1-952; P11818 1-581) (complex)” was tested, and the percent reduction of binding against AdGFPhWt was 30%.

Source: PMC4332860
